According to the Immune Epitope Database (IEDB):

Key:
Conditions in all cases: source organism: Zaire ebolavirus
HLA-A*03:01 = assay: IEDB peptide-MHC binding, purified MHC/competitive/fluorescence; ≥ and ≤ were set here for values at or beyond the usual limits of such assays
HLA-B*15:01 = assay: as above
HLA-A*11:01 = assay: as above
HLA-A*24:02 = assay: as above
HLA-A*02:01 [1] = assay: as above
HLA-B*07:02 = assay: as above
HLA-A*01:01 = assay: as above
HLA-B*27:03 = assay: IEDB peptide-MHC binding, purified MHC/competitive/fluorescence; filed as Kd, often an IC50 or EC50 that approximates it; ≥ and ≤ were set here for values at or beyond the usual limits of such assays
HLA-B*39:01 = assay: as above
HLA-A*69:01 = assay: as above
HLA-A*26:01 = assay: as above
HLA-B*35:01 = assay: as above
HLA-B*46:01 = assay: as above
HLA-A*02:01 [2] = assay: as above
HLA-B*57:01 = assay: as above
HLA-A*24:03 = assay: IEDB peptide-MHC binding, purified MHC/direct/fluorescence; filed as Kd, often an IC50 or EC50 that approximates it; ≥ and ≤ were set here for values at or beyond the usual limits of such assays
HLA-A*02:16 = assay: as above
HLA-A*02:12 = assay: as above
HLA-A*23:01 = assay: as above
HLA-A*02:19 = assay: as above
HLA-B*58:01 = assay: as above
HLA-A*02:03 = assay: as above

Q: Which results are given for TVAPPAPVY?
A: IC50 (HLA-A*03:01): 6.32 µM; IC50 (HLA-B*15:01): 8.09 µM; IC50 (HLA-A*11:01): 0.276 µM; IC50 (HLA-A*24:02): 5.17 µM; IC50 (HLA-A*02:01 [1]): ≥ 119 µM; IC50 (HLA-B*07:02): ≥ 138 µM; IC50 (HLA-A*01:01): 18.2 µM; Kd (HLA-B*27:03): ≥ 20 µM; Kd (HLA-B*39:01): ≥ 20 µM; Kd (HLA-A*69:01): ≥ 20 µM; Kd (HLA-A*26:01): ≥ 20 µM; Kd (HLA-B*35:01): 0.0002 µM; Kd (HLA-B*46:01): ≥ 20 µM; Kd (HLA-A*02:01 [2]): ≥ 20 µM; Kd (HLA-B*57:01): ≥ 20 µM; Kd (HLA-A*24:03): ≥ 20 µM; Kd (HLA-A*02:16): ≥ 20 µM; Kd (HLA-A*02:12): ≥ 20 µM; Kd (HLA-A*23:01): ≥ 20 µM; Kd (HLA-A*02:19): ≥ 20 µM; Kd (HLA-B*58:01): 1.1 µM; Kd (HLA-A*02:03): ≥ 20 µM
